Laboratory results from patent publication US20250186597A1, “TARGETED IMMUNE ACTIVATION WITH IL-18 IMMUNOCYTOKINES” (BRIGHT PEAK THERAPEUTICS AG, priority 2023, published 2025).
Substitutions are numbered along the chain they refer to. Numbers in names are those of the source.

T1: human IL-18BP (Homo sapiens, UniProt O95998)
T1 construct: His
T1 sequence (O95998 31-194): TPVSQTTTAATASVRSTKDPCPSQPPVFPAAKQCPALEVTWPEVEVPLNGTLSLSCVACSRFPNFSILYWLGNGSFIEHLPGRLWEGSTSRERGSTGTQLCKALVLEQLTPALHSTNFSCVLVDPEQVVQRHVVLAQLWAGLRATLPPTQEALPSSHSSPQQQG

B1: 50 (protein)
chain: YFGKLKSKLSVIRNLNDQVLFIDQGNRPLFEDMTDSDCRDNAPRTIFIISMYADSQPRGMAVAISVKCEKISTLSCENKIISFKEMNPPDNIKDTKSDIIFFQRSVPGHDNKMQFESSSYEGYFLACEKERDLFKLILKKEDELGDRSIMFTVQNED
B2: C152: IL-18 polypeptide: V11I, S36A, C38A, K53A, C76A, C127A (protein)
chain: B1 chain with K6E, V11I, S36A, C38A, A63T, C76A, C127A
B3: 54 (protein)
chain: B1 chain with C38S, A63T, C68S, K70C, C76S, C127S
B4: C154: IL-18 polypeptide: V11I, E31A, D37A, C38A, K53A, C76A, C127A (protein)
chain: B1 chain with K6E, V11I, E31A, D37A, C38A, A63T, C76A, C127A
B5: C150: IL-18 polypeptide: V11I, T34A, C38A, K53A, C76A, C127A (protein)
chain: B1 chain with K6E, V11I, T34A, C38A, A63T, C76A, C127A
B6: SEQ ID NO: 68: IL-18 polypeptide: V11I, C38A, M51G, K53A, C76A, C127A (protein)
chain: B1 chain with K6E, V11I, C38A, M51G, A63T, C76A, C127A
B7: C156: IL-18 polypeptide: V11I, C38A, N41A, K53A, C76A, C127A (protein)
chain: B1 chain with K6E, V11I, C38A, N41A, A63T, C76A, C127A
B8: 57 (protein)
chain: B1 chain with C38S, A63T
B9: C148: IL-18 polypeptide: F2A, V11I, C38A, K53A, C76A, C127A (protein)
chain: B1 chain with F2A, K6E, V11I, C38A, A63T, C76A, C127A
B10: C149: IL-18 polypeptide: V11I, E31A, C38A, K53A, C76A, C127A (protein)
chain: B1 chain with K6E, V11I, E31A, C38A, A63T, C76A, C127A
B11: C158: IL-18 polypeptide: V11I, C38A, K53A, C76A, G108A, C127A (protein)
chain: B1 chain with K6E, V11I, C38A, A63T, C76A, G108A, C127A
B12: C144: IL-18 polypeptide: V11I, C38A, K53A, T63A, C76A, C127A (protein)
chain: B1 chain with K6E, V11I, C38A, C76A, C127A
B13: 55 (protein)
chain: B1 chain with K6E, C38S, C68S, K70C, C76S, C127S
B14: C143: IL-18 polypeptide: V11I, C38A, K53A, C76A, C127A (protein)
chain: B1 chain with K6E, V11I, C38A, A63T, C76A, C127A
B15: C153: IL-18 polypeptide: V11I, D37A, C38A, K53A, C76A, C127A (protein)
chain: B1 chain with K6E, V11I, D37A, C38A, A63T, C76A, C127A
B16: C155: IL-18 polypeptide: V11I, C38A, D40A, K53A, C76A, C127A (protein)
chain: B1 chain with K6E, V11I, C38A, D40A, A63T, C76A, C127A
B17: C151: IL-18 polypeptide: V11I, D35A, C38A, K53A, C76A, C127A (protein)
chain: B1 chain with K6E, V11I, D35A, C38A, A63T, C76A, C127A
B18: C157: IL-18 polypeptide: V11I, C38A, K53A, C76A, C127A, D132A (protein)
chain: B1 chain with K6E, V11I, C38A, A63T, C76A, C127A, D132A
B19: C147: IL-18 polypeptide: V11I, C38A, K53A, D54A, C76A, C127A (protein)
chain: B1 chain with K6E, V11I, C38A, D54A, A63T, C76A, C127A
B20: C145: IL-18 polypeptide: V11I, C38A, K53A, S55A, C76A, C127A (protein)
chain: B1 chain with K6E, V11I, C38A, S55A, A63T, C76A, C127A

The molecules below were run on NK-92 cells (assay: IL-18 binding protein inhibition cellular assay in NK-92 cells (Example 4, used in Example 22C)). Conditions: inhibition by IL-18BP of IFNg stimulation in NK92 cells.
Type: cell-based, human
Procedure: The NK cell line NK-92 derived from a patient with lymphoma (ATCC® CRL-2407™) is cultured in aMEM medium supplemented with 20% FCS-Glutamax, 25 µM B-mercaptoethanol, and 100 IU/mL of recombinant human IL-2.
On the day of experiment, cells are harvested and washed with aMEM medium without IL-2 and containing 1 ng/mL of recombinant human IL-12. After counting, the cells are seeded at 100,000 cells/well in a 384 well titer plate and incubated at 37° C./5% CO2. Sixteen 2-fold serial dilutions of Fc-fused human IL-18 binding protein isoform a (IL-18BPa) are prepared in aMEM medium. 1 ng/mL of IL-12 containing 2 nM of each IL-18 polypeptide variant is added to the NK-92 cells. The final IL-18 analyte concentration is 1 nM, and the final IL-18BPa concentration ranged from 566 nM to […].
After incubating the cells for 16-20 hr at 37° C./5% CO2, 5 μL of the supernatant is carefully transferred to a 384 microwell OptiPlate. IFNγ levels are measured using a human IFNγ AlphaLISA Assay Kit. Briefly, 10 μL of 2.5× AlphaLISA anti-IFNγ acceptor beads and biotinylated antibody anti-IFNγ mix are added to 5 μL of NK-92 supernatants. The mixtures are incubated for 1 hr at room temperature with shaking. Under subdued light, 2.5 μL of 2×SA donor beads are pipetted in each well and incubated for 30 min at room temperature with shaking. AlphaLISA signals are then measured on an EnSpire™ plate reader using 680 nm and 615 nm as excitation and emission wavelengths, respectively. Half maximal inhibitory concentrations (IC50) are calculated based on a variable slope and four parameter analysis using GraphPad PRISM software.
(§1) The experiments described in Example 4 for determination of IFNg stimulation in NK92 cells (and inhibition by IL-18 BP) were performed substantially as described on IL-18 polypeptides in order to assess their activities and their suitability for incorporation into immunocytokine compositions. It is expected that the IL-18 polypeptides provided below would behave analagously to C086 (SEQ ID NO: 30) when incorporated into an immunocytokine composition as those otherwise provided herein.
An IC50 of over 1000 nM was found for B1 in this work.
An IC50 of 7.85 nM was found for B2 in this work.
An IC50 of 23.5 nM was found for B3 in this work.
An IC50 of 3.71 nM was found for B4 in this work.
An IC50 of 21.3 nM was found for B5 in this work.
An IC50 of 733 nM was found for B6 in this work.
An IC50 of 0.681 nM was found for B7 in this work.
An IC50 of 146 nM was found for B8 in this work.
An IC50 of 5.05 nM was found for B9 in this work.
An IC50 of 1.17 nM was found for B10 in this work.
An IC50 of 3.98 nM was found for B11 in this work.
An IC50 of 7.52 nM was found for B12 in this work.
An IC50 of over 1000 nM was found for B13 in this work.
An IC50 of 1.62 nM was found for B14 in this work.
An IC50 of 2.22 nM was found for B15 in this work.
An IC50 of 3.23 nM was found for B16 in this work.
An IC50 of 3.62 nM was found for B17 in this work.
An IC50 of 6.08 nM was found for B18 in this work.
An IC50 of 47.6 nM was found for B19 in this work.
An IC50 of 10.2 nM was found for B20 in this work.

These molecules were tested on NK-92 cells (assay: IFNγ induction cellular assay in NK-92 cells (Example 4, used in Example 22C)). Conditions: IFNg stimulation in NK92 cells.
Type: cell-based, human
Procedure: The ability of immunocytokines and IL-18 polypeptides provided herein are assessed for ability to induce IFN[…] in a cellular assay according to the protocol below.
The NK cell line NK-92 derived from a patient with lymphoma (ATCC® CRL-2407™) is cultured in aMEM medium supplemented with 20% FCS, Glutamax, 25 µM B-mercaptoethanol, and 100 IU/mL of recombinant human IL-2.
On the day of experiment, cells are harvested and washed with aMEM medium without IL-2 and containing 1 ng/mL of recombinant human IL-12. After counting, cells are seeded at 100,000 cells/well in a 384 well titer plate and incubated at 37° C./5% CO2. Sixteen 4-fold serial dilutions of IL-18 analytes are prepared in aMEM medium, and 1 ng/mL of IL-12 were added to the NK-92 cells. Final IL-18 analyte concentrations range from 56 nM to 5×10^−5 pM.
After incubating the cells for 16-20 hr at 37° C./5% CO2, 5 μL of supernatant is carefully transferred to a 384 microwell OptiPlate. IFNγ levels are measured using a human IFNγ AlphaLISA Assay Kit. Briefly, 10 μL of 2.5× AlphaLISA Anti-IFNγ acceptor beads and biotinylated antibody anti-IFNγ mix are added to the 5 μL of NK-92 supernatants. The mixtures are incubated for 1 hr at room temperature with shaking. Under subdued light, 2.5 μL of 2× streptavidin (SA) donor beads are pipetted into each well, and the wells are incubated for 30 min at room temperature with shaking. AlphaLISA signals are then measured on an EnSpire™ plate reader using 680 nm and 615 nm as excitation and emission wavelengths, respectively. Half maximal effective concentrations (EC50) are calculated based on a variable slope and four parameter analysis using GraphPad PRISM software.
as §1
An EC50 of 0.0268 nM was found for B1 in this work.
An EC50 of 0.033 nM was found for B2 in this work.
An EC50 of 0.962 nM was found for B3 in this work.
An EC50 of 0.062 nM was found for B4 in this work.
An EC50 of 0.015 nM was found for B5 in this work.
An EC50 of 0.037 nM was found for B6 in this work.
An EC50 of 0.558 nM was found for B7 in this work.
An EC50 of 0.045 nM was found for B8 in this work.
An EC50 of 0.256 nM was found for B9 in this work.
An EC50 of 0.187 nM was found for B10 in this work.
An EC50 of 0.073 nM was found for B11 in this work.
An EC50 of 0.012 nM was found for B12 in this work.
An EC50 of 17.2 nM was found for B13 in this work.
An EC50 of 0.138 nM was found for B14 in this work.
An EC50 of 0.175 nM was found for B15 in this work.
An EC50 of 0.067 nM was found for B16 in this work.
An EC50 of 0.061 nM was found for B17 in this work.
An EC50 of 0.056 nM was found for B18 in this work.
An EC50 of 0.079 nM was found for B19 in this work.
An EC50 of 0.087 nM was found for B20 in this work.

These molecules were tested against T1, human IL-18BP (assay: IL-18BP binding alphaLISA assay (Example 4, used in Example 22B)). Conditions: IL-18BP AlphaLISA.
Procedure: A human IL-18BP AlphaLISA Assay Kit is used to determine the binding affinity of each immunocytokine and IL-18 variant for IL-18BP, which detected the presence of free form IL-18BP.
Sixteen three-fold serial dilutions of IL-18 analytes are prepared in aMEM medium supplemented with 20% FCS, Glutamax, and 25 µM β-mercaptoethanol in the presence of 5 ng/mL of His-tagged human IL-18BP. Final IL-18 analytes concentration range from 2778 nM to […].
After 1 hr incubation at room temperature, free IL-18BP levels are measured using a […]. In a 384 well OPTIplate, 5 μL of 5× Anti-IL-18BP acceptor beads are added to 7.5 μL of an IL-18/IL-18BP mix. After 30 min incubation at room temperature with shaking, 5 μL of biotinylated Anti-IL-18BP antibodies are added to each well. The plate is incubated further for 1 hr at room temperature. Under subdued light, 12.5 μL of 2× streptavidin (SA) donor beads are pipetted into each well, and the wells are incubated with shaking for an additional 30 min at room temperature. The AlphaLisa signal is then measured on an Enspire plate reader with 680 and 615 nm as excitation and emission wavelengths, respectively. The dissociation constant (KD) is calculated based on a variable slope, four parameter analysis using GraphPad PRISM software.
An IL-18 binding protein AiphaLISA experiment substantially as described in Example 4 was performed on IL-18 polypeptide which can be incorporated into immunocytokine compositions as provided herein to assess ability to bind to IL-181BP. It is expected that the IL-18 polypeptides provided below would behave analogously to C086 (SEQ ID NO: 30) when incorporated into an immunocytokine composition as those otherwise provided herein.
A Kd of 340 nM was found for B1 in this work.
A Kd of 1.12 nM was found for B2 in this work.
A Kd of 446 nM was found for B3 in this work.
A Kd of 2.12 nM was found for B4 in this work.
A Kd of 1.24 nM was found for B5 in this work.
A Kd of 373 nM was found for B6 in this work.
A Kd of 18.5 nM was found for B7 in this work.
A Kd of 50.2 nM was found for B8 in this work.
A Kd of 57.2 nM was found for B9 in this work.
A Kd of 0.64 nM was found for B10 in this work.
A Kd of 1.24 nM was found for B11 in this work.
A Kd of 0.66 nM was found for B12 in this work.
A Kd of 913 nM was found for B13 in this work.
A Kd of 8.86 nM was found for B14 in this work.
A Kd of 4.55 nM was found for B15 in this work.
A Kd of 0.74 nM was found for B16 in this work.
A Kd of 2.88 nM was found for B17 in this work.
A Kd of 13.7 nM was found for B18 in this work.
A Kd of 25.8 nM was found for B19 in this work.
A Kd of 9.74 nM was found for B20 in this work.
